In patent publication US20170189519A1:

Tests used:
Test in all cases: ELISA, coated CR6261, P. pastoris medium
Conditions in all cases: remark: other sources report otherwise
[1] = molecular target: 104C4 (influenza A H1N1 A/Brisbane/59/2007)
[2] = molecular target: 112F3 (influenza A H1N1 A/Brisbane/59/2007)
[3] = molecular target: 113E7 (influenza A H1N1 A/Brisbane/59/2007)
[4] = molecular target: 115A1 (influenza A H1N1 A/Brisbane/59/2007)
[5] = molecular target: 127A7 (influenza A H1N1 A/Brisbane/59/2007)
[6] = molecular target: 134A3 (influenza A H1N1 A/Brisbane/59/2007)
[7] = molecular target: 134D3 (influenza A H1N1 A/Brisbane/59/2007)
[8] = molecular target: 134H10 (influenza A H1N1 A/Brisbane/59/2007)
[9] = molecular target: 138F8 (influenza A H1N1 A/Brisbane/59/2007)
[10] = molecular target: 145E7 (influenza A H1N1 A/Brisbane/59/2007)
[11] = molecular target: 162B3 (influenza A H1N1 A/Brisbane/59/2007)
[12] = molecular target: 171F6 (influenza A H1N1 A/Brisbane/59/2007)
[13] = molecular target: 176A5 (influenza A H1N1 A/Brisbane/59/2007)
[14] = molecular target: 181H9 (influenza A H1N1 A/Brisbane/59/2007)
[15] = molecular target: 182D3 (influenza A H1N1 A/Brisbane/59/2007)
[16] = molecular target: 182H2 (influenza A H1N1 A/Brisbane/59/2007)
[17] = molecular target: 185G7 (influenza A H1N1 A/Brisbane/59/2007)
[18] = molecular target: 188A8 (influenza A H1N1 A/Brisbane/59/2007)
[19] = molecular target: 188C8 (influenza A H1N1 A/Brisbane/59/2007)
[20] = molecular target: 191C8 (influenza A H1N1 A/Brisbane/59/2007)
[21] = molecular target: 191D5 (influenza A H1N1 A/Brisbane/59/2007)
[22] = molecular target: 192C4 (influenza A H1N1 A/Brisbane/59/2007)
[23] = molecular target: 199F3 (influenza A H1N1 A/Brisbane/59/2007)
[24] = molecular target: 216E5 (influenza A H1N1 A/Brisbane/59/2007)
[25] = molecular target: 218G11 (influenza A H1N1 A/Brisbane/59/2007)
[26] = molecular target: 234C5 (influenza A H1N1 A/Brisbane/59/2007)
[27] = molecular target: 239D2 (influenza A H1N1 A/Brisbane/59/2007)
[28] = molecular target: 244B8 (influenza A H1N1 A/Brisbane/59/2007)
[29] = molecular target: 245C9 (influenza A H1N1 A/Brisbane/59/2007)
[30] = molecular target: 249B11 (influenza A H1N1 A/Brisbane/59/2007)
[31] = molecular target: 252B8 (influenza A H1N1 A/Brisbane/59/2007)
[32] = molecular target: 266A11 (influenza A H1N1 A/Brisbane/59/2007)
[33] = molecular target: 272H2 (influenza A H1N1 A/Brisbane/59/2007)
[34] = molecular target: 275D4 (influenza A H1N1 A/Brisbane/59/2007)
[35] = molecular target: 275G3 (influenza A H1N1 A/Brisbane/59/2007)

B1: CR6261 (antibody, V domains shown)
VH: EVQLVESGAEVKKPGSSVKVSCKASGGPFRSYAISWVRQAPGQGPEWMGGIIPIFGTTKYAPKFQGRVTITADDFAGTVYMELSSLRSEDTAMYYCAKHMGYQVRETMDVWGKGTTVTVSS
VL: QSVLTQPPSVSAAPGQKVTISCSGSSSNIGNDYVSWYQQLPGTAPKLLIYDNNKRPSGIPDRFSGSKSGTSATLGITGLQTGDEANYYCATWDRRPTAYVVFGGGTKLTVLG
[1]
  CR6261 binding signal: 521000
[2]
  CR6261 binding signal: 450000
[3]
  CR6261 binding signal: 966000
[4]
  CR6261 binding signal: 1.18e+06
[5]
  CR6261 binding signal: 233000
[6]
  CR6261 binding signal: 532000
[7]
  CR6261 binding signal: 304000
[8]
  CR6261 binding signal: 592000
[9]
  CR6261 binding signal: 348000
[10]
  CR6261 binding signal: 132000
[11]
  CR6261 binding signal: 280000
[12]
  CR6261 binding signal: 140000
[13]
  CR6261 binding signal: 193000
[14]
  CR6261 binding signal: 311000
[15]
  CR6261 binding signal: 143000
[16]
  CR6261 binding signal: 110000
[17]
  CR6261 binding signal: 506000
[18]
  CR6261 binding signal: 279000
[19]
  CR6261 binding signal: 113000
[20]
  CR6261 binding signal: 309000
[21]
  CR6261 binding signal: 124000
[22]
  CR6261 binding signal: 343000
[23]
  CR6261 binding signal: 329000
[24]
  CR6261 binding signal: 335000
[25]
  CR6261 binding signal: 959000
[26]
  CR6261 binding signal: 278000
[27]
  CR6261 binding signal: 570000
[28]
  CR6261 binding signal: 274000
[29]
  CR6261 binding signal: 180000
[30]
  CR6261 binding signal: 145000
[31]
  CR6261 binding signal: 285000
[32]
  CR6261 binding signal: 90600
[33]
  CR6261 binding signal: 263000
[34]
  CR6261 binding signal: 327000
[35]
  CR6261 binding signal: 115000
